Data published in PMC11341715, “Structural insights into Frizzled3 through nanobody modulators” (Nature Communications, 2024).
Each block holds one binder with its values, some of them ahead of it.

What was measured:
Settings in all cases: both partners purified
[1] = biological target: T1, biotinylated FZD6 (C-terminally truncated transmembrane construct, in detergent) (Homo sapiens, UniProt O60353, biotin (in vivo biotinylation of the Avi tag)); assay: BLI; Octet Red 96e; biotinylated multidomain FZD3 or FZD6 in detergent immobilised, nanobody or DEP in solution; 10 mM HEPES pH 7.5, 150 mM NaCl, 0.02% Tween 20, 0.005% GDN; 1:1 binding model
T1 construct: Frizzled-6 (FZD6), C-terminally truncated transmembrane construct; the methods say C-terminal truncated, without limits; also called full length FZD6; source: HEK293T with biotin ligase, transfected, biotinylated in vivo, in detergent; not shown: Avi3, C-terminal, kept
T1 sequence (O60353 19-706): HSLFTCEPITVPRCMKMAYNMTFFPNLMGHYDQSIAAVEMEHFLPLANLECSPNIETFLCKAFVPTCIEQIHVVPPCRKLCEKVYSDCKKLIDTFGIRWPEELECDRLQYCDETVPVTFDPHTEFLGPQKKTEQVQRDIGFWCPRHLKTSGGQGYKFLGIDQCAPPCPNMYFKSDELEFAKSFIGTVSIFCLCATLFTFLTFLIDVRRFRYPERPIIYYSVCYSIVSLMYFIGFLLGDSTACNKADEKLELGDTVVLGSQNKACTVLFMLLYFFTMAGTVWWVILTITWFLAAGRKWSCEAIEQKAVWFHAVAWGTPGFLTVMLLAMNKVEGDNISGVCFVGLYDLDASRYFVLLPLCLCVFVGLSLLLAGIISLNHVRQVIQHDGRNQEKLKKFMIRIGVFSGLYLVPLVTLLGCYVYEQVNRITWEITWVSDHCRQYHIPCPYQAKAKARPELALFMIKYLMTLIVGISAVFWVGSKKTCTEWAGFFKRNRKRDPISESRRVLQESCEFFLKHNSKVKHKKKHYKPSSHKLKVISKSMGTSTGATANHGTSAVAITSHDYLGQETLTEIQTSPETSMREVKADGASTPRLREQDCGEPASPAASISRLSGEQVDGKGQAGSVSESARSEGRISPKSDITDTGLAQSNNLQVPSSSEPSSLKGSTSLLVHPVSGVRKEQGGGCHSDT

[2] = biological target: T2, biotinylated multidomain FZD3 (C-terminally truncated, in detergent) (human, UniProt Q9NPG1, biotin (in vivo biotinylation of the Avi tag)); assay: as above
T2 construct: human Frizzled-3 (FZD3), UniProt Q9NPG1; C-terminally truncated construct (CRD, linker and transmembrane domain); residues 26-517 are stated for the multidomain production construct, not expressly for the Avi-tagged one; The results call it 'full-length FZD3'; the methods say the biotinylated transmembrane constructs were C-terminally truncated; Functional assays in cells used wild type FZD3 …

[3] = biological target: T3, biotinylated FZD8 cysteine-rich domain (CRD) (Homo sapiens, UniProt Q9H461, biotin (in vivo biotinylation of the Avi tag)); assay: BLI; BLItz System; initial qualitative test of the 10 biotinylated human FZD CRDs binding to Nb8
T3 construct: human Frizzled-8 (FZD8) cysteine-rich domain; One of 'all 10 human Frizzled CRDs'; also called FZD8 CRD; source: HEK293T constitutively expressing ER-localised biotin ligase, transfected, biotinylated in vivo; not shown: Avi3, C-terminal, kept
T3 sequence (Q9H461 whole entry, looked up, the tested form may be a part): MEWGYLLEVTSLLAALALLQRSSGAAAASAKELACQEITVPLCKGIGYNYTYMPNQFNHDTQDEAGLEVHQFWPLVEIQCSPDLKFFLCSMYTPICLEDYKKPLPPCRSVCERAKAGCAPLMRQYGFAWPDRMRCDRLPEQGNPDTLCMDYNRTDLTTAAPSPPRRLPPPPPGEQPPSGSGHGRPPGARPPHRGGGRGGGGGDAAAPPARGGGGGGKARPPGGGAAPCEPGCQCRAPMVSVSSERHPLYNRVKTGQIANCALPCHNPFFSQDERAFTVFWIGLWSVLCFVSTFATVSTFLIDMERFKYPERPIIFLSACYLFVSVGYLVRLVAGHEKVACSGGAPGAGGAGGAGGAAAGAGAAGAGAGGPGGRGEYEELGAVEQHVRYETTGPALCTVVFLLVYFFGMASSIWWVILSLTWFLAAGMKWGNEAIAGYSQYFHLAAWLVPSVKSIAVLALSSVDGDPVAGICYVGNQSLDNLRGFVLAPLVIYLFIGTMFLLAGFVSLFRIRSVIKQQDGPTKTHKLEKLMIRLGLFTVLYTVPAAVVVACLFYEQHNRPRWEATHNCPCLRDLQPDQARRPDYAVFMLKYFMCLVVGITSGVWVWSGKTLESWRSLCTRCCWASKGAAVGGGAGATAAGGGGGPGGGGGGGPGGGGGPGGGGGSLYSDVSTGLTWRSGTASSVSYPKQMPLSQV

[4] = biological target: T4, biotinylated FZD4 cysteine-rich domain (CRD) (Homo sapiens, UniProt Q9ULV1, biotin (in vivo biotinylation of the Avi tag)); assay: as above
T4 construct: human Frizzled-4 (FZD4) cysteine-rich domain; One of 'all 10 human Frizzled CRDs'; also called FZD4 CRD; source: HEK293T constitutively expressing ER-localised biotin ligase, transfected, biotinylated in vivo; not shown: Avi3, C-terminal, kept
T4 sequence (Q9ULV1 whole entry, looked up, the tested form may be a part): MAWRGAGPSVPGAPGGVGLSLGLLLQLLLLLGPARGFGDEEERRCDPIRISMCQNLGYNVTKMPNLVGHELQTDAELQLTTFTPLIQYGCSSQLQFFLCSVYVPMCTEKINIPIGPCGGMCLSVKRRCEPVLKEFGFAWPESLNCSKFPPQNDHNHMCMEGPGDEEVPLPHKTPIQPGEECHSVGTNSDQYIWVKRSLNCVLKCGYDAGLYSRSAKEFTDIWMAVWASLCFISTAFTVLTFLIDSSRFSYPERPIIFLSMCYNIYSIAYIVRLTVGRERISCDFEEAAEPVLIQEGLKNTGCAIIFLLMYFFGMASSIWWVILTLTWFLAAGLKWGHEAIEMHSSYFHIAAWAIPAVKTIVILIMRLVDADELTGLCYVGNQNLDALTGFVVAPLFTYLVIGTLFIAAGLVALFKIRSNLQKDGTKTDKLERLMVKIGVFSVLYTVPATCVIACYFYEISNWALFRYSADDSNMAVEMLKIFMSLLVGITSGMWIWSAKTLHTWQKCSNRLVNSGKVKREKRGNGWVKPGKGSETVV

[5] = biological target: T5, biotinylated FZD2 cysteine-rich domain (CRD) (Homo sapiens, UniProt Q14332, biotin (in vivo biotinylation of the Avi tag)); assay: as above
T5 construct: human Frizzled-2 (FZD2) cysteine-rich domain; One of 'all 10 human Frizzled CRDs'; also called FZD2 CRD; source: HEK293T constitutively expressing ER-localised biotin ligase, transfected, biotinylated in vivo; not shown: Avi3, C-terminal, kept
T5 sequence (Q14332 whole entry, looked up, the tested form may be a part): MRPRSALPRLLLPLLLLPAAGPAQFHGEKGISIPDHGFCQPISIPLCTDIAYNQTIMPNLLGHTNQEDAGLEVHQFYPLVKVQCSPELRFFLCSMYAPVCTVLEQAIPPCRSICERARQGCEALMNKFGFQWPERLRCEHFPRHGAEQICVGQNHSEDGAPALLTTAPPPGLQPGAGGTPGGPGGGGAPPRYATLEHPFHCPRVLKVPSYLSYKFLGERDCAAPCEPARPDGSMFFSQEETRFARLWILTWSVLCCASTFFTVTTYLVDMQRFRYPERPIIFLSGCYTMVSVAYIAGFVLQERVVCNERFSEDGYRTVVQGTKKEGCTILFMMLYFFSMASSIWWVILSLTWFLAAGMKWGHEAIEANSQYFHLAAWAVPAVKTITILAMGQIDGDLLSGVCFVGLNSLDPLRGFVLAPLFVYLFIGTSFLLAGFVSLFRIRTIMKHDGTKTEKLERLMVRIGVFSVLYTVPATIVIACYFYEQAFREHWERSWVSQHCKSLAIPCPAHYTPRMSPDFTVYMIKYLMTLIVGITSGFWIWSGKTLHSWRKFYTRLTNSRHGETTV

[6] = biological target: T6, biotinylated FZD5 cysteine-rich domain (CRD) (Homo sapiens, UniProt Q13467, biotin (in vivo biotinylation of the Avi tag)); assay: as above
T6 construct: human Frizzled-5 (FZD5) cysteine-rich domain; One of 'all 10 human Frizzled CRDs'; also called FZD5 CRD; source: HEK293T constitutively expressing ER-localised biotin ligase, transfected, biotinylated in vivo; not shown: Avi3, C-terminal, kept
T6 sequence (Q13467 whole entry, looked up, the tested form may be a part): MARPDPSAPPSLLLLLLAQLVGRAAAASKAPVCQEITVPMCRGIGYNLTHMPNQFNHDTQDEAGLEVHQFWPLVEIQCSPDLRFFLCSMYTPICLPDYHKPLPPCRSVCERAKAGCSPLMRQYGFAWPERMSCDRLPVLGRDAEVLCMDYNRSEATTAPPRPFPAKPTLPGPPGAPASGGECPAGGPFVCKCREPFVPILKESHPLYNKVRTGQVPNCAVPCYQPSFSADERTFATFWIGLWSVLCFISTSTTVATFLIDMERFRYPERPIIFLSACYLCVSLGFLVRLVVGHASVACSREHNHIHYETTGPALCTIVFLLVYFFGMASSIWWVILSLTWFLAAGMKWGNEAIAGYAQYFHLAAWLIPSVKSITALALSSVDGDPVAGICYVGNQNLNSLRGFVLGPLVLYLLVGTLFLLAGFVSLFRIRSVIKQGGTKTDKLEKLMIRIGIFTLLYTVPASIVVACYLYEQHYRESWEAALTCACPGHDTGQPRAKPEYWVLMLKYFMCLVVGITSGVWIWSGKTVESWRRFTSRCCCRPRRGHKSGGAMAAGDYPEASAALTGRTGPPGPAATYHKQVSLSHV

[7] = biological target: T7, biotinylated FZD10 cysteine-rich domain (CRD) (Homo sapiens, UniProt Q9ULW2, biotin (in vivo biotinylation of the Avi tag)); assay: as above
T7 construct: human Frizzled-10 (FZD10) cysteine-rich domain; One of 'all 10 human Frizzled CRDs'; also called FZD10 CRD; source: HEK293T constitutively expressing ER-localised biotin ligase, transfected, biotinylated in vivo; not shown: Avi3, C-terminal, kept
T7 sequence (Q9ULW2 whole entry, looked up, the tested form may be a part): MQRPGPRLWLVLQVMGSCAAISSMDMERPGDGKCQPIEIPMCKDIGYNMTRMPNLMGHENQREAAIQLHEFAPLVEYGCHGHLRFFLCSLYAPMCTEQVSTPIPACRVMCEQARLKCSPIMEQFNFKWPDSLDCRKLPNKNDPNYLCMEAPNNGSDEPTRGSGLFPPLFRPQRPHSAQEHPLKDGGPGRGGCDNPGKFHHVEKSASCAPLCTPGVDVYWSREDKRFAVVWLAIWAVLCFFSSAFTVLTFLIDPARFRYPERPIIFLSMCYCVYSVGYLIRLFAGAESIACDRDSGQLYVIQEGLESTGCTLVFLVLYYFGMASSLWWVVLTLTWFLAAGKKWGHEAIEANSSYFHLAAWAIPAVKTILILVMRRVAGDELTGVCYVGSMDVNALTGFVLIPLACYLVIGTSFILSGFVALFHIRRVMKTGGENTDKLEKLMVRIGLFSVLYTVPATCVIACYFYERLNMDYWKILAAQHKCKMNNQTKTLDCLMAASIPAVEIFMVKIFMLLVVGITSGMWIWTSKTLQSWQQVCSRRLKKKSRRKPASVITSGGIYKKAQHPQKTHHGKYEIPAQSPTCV

[8] = biological target: T8, biotinylated FZD7 cysteine-rich domain (CRD) (Homo sapiens, UniProt O75084, biotin (in vivo biotinylation of the Avi tag)); assay: as above
T8 construct: human Frizzled-7 (FZD7) cysteine-rich domain; One of 'all 10 human Frizzled CRDs'; also called FZD7 CRD; source: HEK293T constitutively expressing ER-localised biotin ligase, transfected, biotinylated in vivo; not shown: Avi3, C-terminal, kept

[9] = biological target: T9, biotinylated FZD9 cysteine-rich domain (CRD) (Homo sapiens, UniProt O00144, biotin (in vivo biotinylation of the Avi tag)); assay: as above
T9 construct: human Frizzled-9 (FZD9) cysteine-rich domain; One of 'all 10 human Frizzled CRDs'; also called FZD9 CRD; source: HEK293T constitutively expressing ER-localised biotin ligase, transfected, biotinylated in vivo; not shown: Avi3, C-terminal, kept
T9 sequence (O00144 whole entry, looked up, the tested form may be a part): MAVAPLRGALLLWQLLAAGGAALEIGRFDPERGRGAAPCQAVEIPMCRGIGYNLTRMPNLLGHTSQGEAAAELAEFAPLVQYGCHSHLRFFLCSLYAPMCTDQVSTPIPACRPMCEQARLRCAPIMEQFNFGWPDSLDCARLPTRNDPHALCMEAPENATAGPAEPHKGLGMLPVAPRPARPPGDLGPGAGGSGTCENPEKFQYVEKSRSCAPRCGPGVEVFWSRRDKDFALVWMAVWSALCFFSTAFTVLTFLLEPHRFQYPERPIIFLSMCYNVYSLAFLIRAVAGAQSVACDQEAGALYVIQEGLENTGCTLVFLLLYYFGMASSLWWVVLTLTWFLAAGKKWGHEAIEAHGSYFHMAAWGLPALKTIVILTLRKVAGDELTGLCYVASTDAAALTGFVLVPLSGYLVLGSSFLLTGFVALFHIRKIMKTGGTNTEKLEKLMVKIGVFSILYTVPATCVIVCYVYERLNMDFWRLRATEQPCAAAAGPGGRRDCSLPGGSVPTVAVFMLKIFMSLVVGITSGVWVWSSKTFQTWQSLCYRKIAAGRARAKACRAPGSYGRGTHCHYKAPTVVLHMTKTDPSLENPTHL

[10] = biological target: T10, biotinylated FZD1 cysteine-rich domain (CRD) (Homo sapiens, UniProt Q9UP38, biotin (in vivo biotinylation of the Avi tag)); assay: as above
T10 construct: human Frizzled-1 (FZD1) cysteine-rich domain; One of 'all 10 human Frizzled CRDs'; also called FZD1 CRD; source: HEK293T constitutively expressing ER-localised biotin ligase, transfected, biotinylated in vivo; not shown: Avi3, C-terminal, kept
T10 sequence (Q9UP38 whole entry, looked up, the tested form may be a part): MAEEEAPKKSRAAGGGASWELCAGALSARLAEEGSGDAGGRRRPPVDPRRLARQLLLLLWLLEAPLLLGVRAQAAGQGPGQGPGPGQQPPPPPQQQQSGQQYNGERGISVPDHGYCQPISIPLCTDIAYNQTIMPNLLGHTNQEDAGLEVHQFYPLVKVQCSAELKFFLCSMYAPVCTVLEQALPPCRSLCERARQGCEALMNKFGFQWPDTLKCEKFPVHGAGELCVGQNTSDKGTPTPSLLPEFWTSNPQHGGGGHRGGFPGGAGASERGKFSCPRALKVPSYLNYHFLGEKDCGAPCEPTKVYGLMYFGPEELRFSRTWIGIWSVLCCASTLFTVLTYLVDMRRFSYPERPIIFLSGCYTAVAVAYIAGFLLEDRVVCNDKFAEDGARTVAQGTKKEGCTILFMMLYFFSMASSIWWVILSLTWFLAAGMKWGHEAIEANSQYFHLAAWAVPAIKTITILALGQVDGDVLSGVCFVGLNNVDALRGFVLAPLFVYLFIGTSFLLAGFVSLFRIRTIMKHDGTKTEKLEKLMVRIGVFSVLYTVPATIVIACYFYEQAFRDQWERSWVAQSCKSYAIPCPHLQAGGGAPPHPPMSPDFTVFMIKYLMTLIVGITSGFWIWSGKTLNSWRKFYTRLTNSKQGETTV

[11] = biological target: T11, biotinylated FZD3 cysteine-rich domain (CRD) (human, UniProt Q9NPG1, biotin (in vivo biotinylation of the Avi tag)); assay: BLI; Octet Red 96e; biotinylated FZD3 or FZD6 CRD immobilised, Nb8 or Wnt5a in solution; 10 mM HEPES pH 7.5, 150 mM NaCl, 0.02% Tween 20, 0.005% GDN; 1:1 binding model
T11 construct: human Frizzled-3 (FZD3), UniProt Q9NPG1, cysteine-rich domain; residues 26-138 are stated for the FZD3 CRD production construct, not expressly for the Avi-tagged one; The limits 26-138 are told for the Twin-Strep construct; also called FZD3 CRD; Frizzled3 CRD; source: HEK293T constitutively expressing ER-localised biotin ligase, transfected, biotinylated in vivo; not shown: Avi3, C-terminal, kept

Kd [1]: 410 ± 41 nM | Kd [2]: 32 ± 2.8 nM
B1: Nb9 (VHH)
VHH: QVQLVESGGGLVQAGGSLRLSCTASGRIFNLDVMGWYRQAPGKRRELVADITSGGKINYADSVKGRFTISRDNTKDTVYLQMNSLKPEDTAVYYCNAEVEWLDMDYWGKGTQVTVSS
notes: most of the chain also in PDB 8QW4 (as the megabody); also called nanobody 9; family 3

binding result [3]: no binding | binding result [4]: no binding | binding result [5]: no binding | binding result [6]: no binding | binding result [7]: no binding | binding result [8]: no binding | binding result [9]: no binding | binding result [10]: no binding | Kd [11]: 19.2 ± 1.2 nM
B2: Nb8 (VHH)
VHH: QVQLVESGGGLVQAGGSLRLSCAASGSISSINAMGWYRQAPGKQRELVAAITSGGSTNYADSVKGRFTISRDNAKNTVYLQMNSLKPGDTAVYYCNLLYYIDYVEYDYWGQGTQVTVSS
notes: also in PDB 8Q7O; residues 1-119 are named for the Nb8 module of the surrogate; Untagged in the crystallisation sample; also called nanobody 8; family 2; source: co-expressed untagged with FZD3 CRD in HEK293S GnTI- cells (for crystallisation)

binding result [2]: binds
B3: Nb1 (VHH)
VHH: QVQLVESGGGLVQAGGSLRLSCAASGNIFSINAMGWYRQAAGKQRELVAAITSGGSTNYADSVKGRFTISRDNAKNTVYLQMNSLKPEDTAVYYCNADEWALGEHWGQGTQVTVSS
notes: also called nanobody 1; family 1 (Nb1, 3-6)
